For two substances, Kd results are on record in paper doi:10.1101/543413.

What all share (test): MST
Test [1] addresses R663H human β-cardiac 25-hep HMM (UniProt P12883).
Test [2] has as its target R663H human β-cardiac sS1 (human) (UniProt P12883).
Test [3] addresses WT human β-cardiac sS1 (short S1) (human) (UniProt P12883).

What is called Kd is the concentration at which binding is half-saturated. A higher Kd goes with weaker binding. Regarding “C0-C7 fragment of myosin binding protein-C (MyBP-C) (domain or fragment)”, the Kd in test [1] turned out to be 0.9 µM. Consider “proximal S2 of human β-cardiac myosin (from UniProt P12883 1-1935) (domain or fragment)”, for which the Kd was determined as 50 µM in test [2] and 67 µM in test [3].
